Laboratory results published in patent publication US20120039846A1.

Assays:
[1] = target: HCV envelope glycoprotein E2, genotype 1b (hepatitis C virus genotype 1b); assay: competition ELISA on GNA-captured E2 of 1b HCVpp lysate; competing antibody 20 ug/ml; competitor: biotinylated CBH-7 at 2 ug/ml
[2] = target: HCV envelope glycoprotein E2, genotype 1b (hepatitis C virus genotype 1b); assay: CD81 capture ELISA; 1b E1E2 lysate preincubated with antibody (15 µg/ml), added to CD81-coated wells, detected with biotinylated CBH-4D
[3] = target: HCV envelope glycoprotein E2, genotype 1a (hepatitis C virus genotype 1a) (UniProt P27958); assay: cell-based or functional assay
[4] = target: H77c E2 with substitutions at Val536 (row 10), Phe537 (row 11) and Asn540 (row 12); assay: ELISA on GNA-captured mutant E2 from 293T lysates
[5] = target: H77c E2 mutant, Trp529 replaced by alanine (hepatitis C virus genotype 1a, strain H77c) (UniProt P27958); assay: ELISA on GNA-captured mutant E2 from 293T lysates
[6] = target: H77c E2 mutant, Gly523 replaced by alanine (hepatitis C virus genotype 1a, strain H77c) (UniProt P27958); assay: ELISA on GNA-captured mutant E2 from 293T lysates
[7] = target: H77c E2 mutant L692A (hepatitis C virus genotype 1a, strain H77c) (UniProt P27958); assay: alanine replacement, ELISA
[8] = target: H77c E2 mutant D698A (hepatitis C virus genotype 1a, strain H77c) (UniProt P27958); assay: alanine replacement, ELISA
[9] = target: H77c E2 mutant R657A (hepatitis C virus genotype 1a, strain H77c) (UniProt P27958); assay: alanine replacement, ELISA
[10] = target: H77c E2 mutant I696A (hepatitis C virus genotype 1a, strain H77c) (UniProt P27958); assay: alanine replacement, ELISA
[11] = target: H77c E2 mutant D658A (hepatitis C virus genotype 1a, strain H77c) (UniProt P27958); assay: alanine replacement, ELISA
[12] = target: H77c E2 mutant F679A (hepatitis C virus genotype 1a, strain H77c) (UniProt P27958); assay: alanine replacement, ELISA
[13] = target: H77c E2 mutant, Asp533 substituted (hepatitis C virus genotype 1a, strain H77c) (UniProt P27958); assay: ELISA on GNA-captured mutant E2 from 293T lysates
[14] = target: H77c E2 mutant, Asn532 substituted (hepatitis C virus genotype 1a, strain H77c) (UniProt P27958); assay: ELISA on GNA-captured mutant E2 from 293T lysates
[15] = target: H77c E2 mutant, Pro525 substituted (hepatitis C virus genotype 1a, strain H77c) (UniProt P27958); assay: ELISA on GNA-captured mutant E2 from 293T lysates
[16] = target: H77c E2 mutant, Thr534 substituted (hepatitis C virus genotype 1a, strain H77c) (UniProt P27958); assay: ELISA on GNA-captured mutant E2 from 293T lysates
[17] = target: H77c E2 mutant, Ala531 substituted (hepatitis C virus genotype 1a, strain H77c) (UniProt P27958); assay: ELISA on GNA-captured mutant E2 from 293T lysates
[18] = target: H77c E2 mutant, Asp535 replaced by alanine (hepatitis C virus genotype 1a, strain H77c) (UniProt P27958); assay: ELISA on GNA-captured mutant E2 from 293T lysates
[19] = target: H77c E2 mutant, Asn540 replaced by alanine (hepatitis C virus genotype 1a, strain H77c) (UniProt P27958); assay: ELISA on GNA-captured mutant E2 from 293T lysates
[20] = target: H77c E2 mutant, Gly530 replaced by alanine (hepatitis C virus genotype 1a, strain H77c) (UniProt P27958); assay: ELISA on GNA-captured mutant E2 from 293T lysates

human monoclonal antibody CBH-23
percent competition [1]: > 90% | percent reduction of E2 binding to CD81 [2]: > 90%

CBH-5 (antibody)
IC50 of 1a HCVpp neutralization [3]: 4 µg/mL | neutralization of 1a HCVpp at 20 µg/ml [3]: 60% | percent reduction of E2 binding to CD81 [2]: > 90%

CBH-4G (antibody)
percent decrease in binding vs wild type [4]: 70 to 95%

human monoclonal antibody HC-11
IC50 of 1a HCVpp neutralization [3]: 0.9 µg/mL | percent decrease in binding vs wild type [5]: 44% | percent decrease in binding vs wild type [6]: 60% | percent reduction of E2 binding to CD81 [2]: > 90%

human monoclonal antibody HC-3
percent decrease in binding [7]: > 90% | percent decrease in binding [8]: > 90% | percent decrease in binding [9]: > 90% | percent decrease in binding [10]: > 90% | percent decrease in binding [11]: > 90% | percent decrease in binding [12]: > 90%

HC-12 (antibody)
percent change in binding vs wild type [13]: < 20% | percent change in binding vs wild type [14]: < 20% | percent change in binding vs wild type [15]: < 20% | percent change in binding vs wild type [16]: < 20% | percent change in binding vs wild type [17]: < 20%

human monoclonal antibody HC-1
percent decrease in binding vs wild type [18]: > 80% | percent of wild-type binding (% of wild type) [19]: < 10 | percent change in binding vs wild type [13]: < 20% | percent of wild-type binding (% of wild type) [5]: < 10 | percent change in binding vs wild type [14]: < 20% | percent decrease in binding vs wild type [20]: > 80% | percent of wild-type binding (% of wild type) [20]: < 10 | percent change in binding vs wild type [15]: < 20% | percent change in binding vs wild type [16]: < 20% | percent change in binding vs wild type [17]: < 20% | percent decrease in binding vs wild type [6]: 60% | percent reduction of E2 binding to CD81 [2]: > 90%
